From patent US20220031841A1 (ABSCI, published 2022)

Legend:
Experiment in all cases: HuProt protein array, F635 z-score
[1] = biological target: T1, Src homology 2 (SH2) domain containing inositol polyphosphate 5-phosphatase 1 (SHIP1) (human, UniProt Q92835 1-1189)
T1 construct: The array carries full-length recombinant human proteins expressed in S. cerevisiae, purified and printed on glass slides; also called INPP5D; INPP5D/SHIP1
T1 sequence: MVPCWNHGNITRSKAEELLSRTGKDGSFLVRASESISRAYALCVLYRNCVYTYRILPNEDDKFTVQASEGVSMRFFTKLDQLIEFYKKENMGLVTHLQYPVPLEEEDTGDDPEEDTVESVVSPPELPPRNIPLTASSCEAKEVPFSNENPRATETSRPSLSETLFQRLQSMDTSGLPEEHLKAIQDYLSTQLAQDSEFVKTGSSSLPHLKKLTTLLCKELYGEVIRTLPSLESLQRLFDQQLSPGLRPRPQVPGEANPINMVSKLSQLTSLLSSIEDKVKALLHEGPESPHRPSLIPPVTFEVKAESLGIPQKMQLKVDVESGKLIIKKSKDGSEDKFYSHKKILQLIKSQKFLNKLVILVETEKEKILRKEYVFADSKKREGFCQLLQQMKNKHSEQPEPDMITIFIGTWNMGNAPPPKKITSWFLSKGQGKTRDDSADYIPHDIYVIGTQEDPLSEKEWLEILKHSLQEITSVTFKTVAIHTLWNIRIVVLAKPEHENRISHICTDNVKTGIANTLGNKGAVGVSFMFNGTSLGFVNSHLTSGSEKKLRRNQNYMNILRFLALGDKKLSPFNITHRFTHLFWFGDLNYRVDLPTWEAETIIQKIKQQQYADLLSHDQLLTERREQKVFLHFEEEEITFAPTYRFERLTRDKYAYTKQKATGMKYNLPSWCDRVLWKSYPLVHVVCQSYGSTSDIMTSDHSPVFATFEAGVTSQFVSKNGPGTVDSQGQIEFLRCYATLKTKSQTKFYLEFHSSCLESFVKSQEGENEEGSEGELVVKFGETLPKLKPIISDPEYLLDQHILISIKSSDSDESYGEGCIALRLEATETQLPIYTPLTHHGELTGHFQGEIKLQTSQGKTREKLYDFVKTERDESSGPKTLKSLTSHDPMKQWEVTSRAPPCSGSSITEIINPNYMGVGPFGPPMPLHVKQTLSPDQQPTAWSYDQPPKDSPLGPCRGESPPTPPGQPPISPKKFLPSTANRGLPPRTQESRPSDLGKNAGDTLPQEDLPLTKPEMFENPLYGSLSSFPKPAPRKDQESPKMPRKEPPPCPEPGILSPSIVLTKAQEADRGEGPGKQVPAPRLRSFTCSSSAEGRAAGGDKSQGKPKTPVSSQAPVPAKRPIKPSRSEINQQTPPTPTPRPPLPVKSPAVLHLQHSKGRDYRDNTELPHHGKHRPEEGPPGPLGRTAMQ
From the text: (§1) Large scale protein arrays are versatile and sensitive platforms for antibody specificity evaluation. They can be used for the evaluation of protein binding or affinity reagents that are widely employed in research and clinical applications. The microarray used in our target identification experiment provides the largest number of unique, full-length, individually purified human proteins on a single microscope slide. This allows thousands of interactions to be profiled in a high-throughput manner. The hill-length recombinant proteins are expressed in the yeast S. cerevisiae, purified, and printed on glass slides in duplicate along with a set of control proteins (GST, BSA, histones, IgG, etc.). Such microarray is not restricted to a particular type of surface coating, although the default is glass coated with ultra-thin nitrocellulose film for the non-covalent, yet irreversible, capture of active proteins to the surface. Fourteen Protein arrays were used for the antibody cross-reactivity assay of the samples. The antibodies were probed at […] on the arrays and incubated at room temperature for 1 hour. After probing, the arrays were washed according to the protocol and probed with Alexa-647-anti-human IgG […] specific secondary antibodies under conditions optimized for signal detection. The antibody-antigen binding score was calculated for each protein represented on the array and expressed as z-scores.
(§2) Antibody samples are probed on native HuProt arrays at 1 μg/ml and incubated at room temperature for 1 hour. After probing, the arrays are washed according to the standard protocols and probed with Alexa-647-anti-human IgG Fc gamma specific secondary antibodies under conditions optimized for signal detection.
(§3) Z score is the average Z score of the duplicate spots of a given protein (each protein is printed in duplicate on a HuProt™ array). The Z score of each spot on a given array is calculated according to the equation: […]

[2] = biological target: T2, Chromobox protein homolog 1 (CBX1) (human, UniProt P83916 1-185)
T2 construct: The array carries full-length recombinant human proteins expressed in S. cerevisiae; also called Human Chromobox protein homolog 1
T2 sequence (P83916 whole entry): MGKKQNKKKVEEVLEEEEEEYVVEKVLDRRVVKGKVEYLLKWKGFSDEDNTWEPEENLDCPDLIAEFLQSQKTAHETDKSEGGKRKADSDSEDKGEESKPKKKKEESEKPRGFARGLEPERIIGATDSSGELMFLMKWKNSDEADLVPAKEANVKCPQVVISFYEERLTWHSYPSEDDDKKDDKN
From the text: as §1, §2, §3

[3] = biological target: T3, Chromobox protein homolog 5 (CBX5) (human, UniProt P45973 1-191)
T3 construct: The array carries full-length recombinant human proteins expressed in S. cerevisiae; also called Human Chromobox protein homolog 5
T3 sequence (P45973 whole entry): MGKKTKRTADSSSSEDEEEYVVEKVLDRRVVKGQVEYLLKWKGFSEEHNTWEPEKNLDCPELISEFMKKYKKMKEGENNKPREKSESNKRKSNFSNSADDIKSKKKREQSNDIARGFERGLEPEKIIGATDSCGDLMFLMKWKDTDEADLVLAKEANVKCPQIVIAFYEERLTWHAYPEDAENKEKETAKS
From the text: as §1, §2, §3

[4] = biological target: T4, Cancer/testis antigen 1 (CTAG1A) (human, UniProt P78358 1-180)
T4 construct: The array carries full-length recombinant human proteins expressed in S. cerevisiae; also called NY-ESO-1; Cancer/Testis Antigen 1A
T4 sequence (P78358 whole entry): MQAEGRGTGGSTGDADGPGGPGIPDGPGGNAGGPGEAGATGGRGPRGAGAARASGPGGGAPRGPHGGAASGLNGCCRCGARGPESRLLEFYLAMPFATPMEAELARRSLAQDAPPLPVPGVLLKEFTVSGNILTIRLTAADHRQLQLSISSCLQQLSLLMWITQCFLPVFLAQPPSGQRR
From the text: as §1, §2, §3

[5] = biological target: T5, Inorganic pyrophosphatase (PPA1) (human, UniProt Q15181 2-289)
T5 construct: The array carries full-length recombinant human proteins expressed in S. cerevisiae; also called Human PPA1
T5 sequence: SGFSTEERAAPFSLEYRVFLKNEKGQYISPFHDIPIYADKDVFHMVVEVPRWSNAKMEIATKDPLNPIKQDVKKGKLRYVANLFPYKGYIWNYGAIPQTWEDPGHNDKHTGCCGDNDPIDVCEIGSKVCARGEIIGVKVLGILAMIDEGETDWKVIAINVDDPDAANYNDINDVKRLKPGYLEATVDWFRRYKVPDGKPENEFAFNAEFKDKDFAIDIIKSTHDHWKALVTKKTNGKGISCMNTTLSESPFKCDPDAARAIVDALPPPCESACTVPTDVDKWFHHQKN
From the text: as §1, §2, §3

[6] = biological target: T6, Alpha-taxilin (TXLNA) also known as interleukin-14A (human, UniProt P40222 1-546)
T6 construct: The array carries full-length recombinant human proteins expressed in S. cerevisiae; also called IL-14A; TXLNA/IL-14A
T6 sequence (P40222 whole entry): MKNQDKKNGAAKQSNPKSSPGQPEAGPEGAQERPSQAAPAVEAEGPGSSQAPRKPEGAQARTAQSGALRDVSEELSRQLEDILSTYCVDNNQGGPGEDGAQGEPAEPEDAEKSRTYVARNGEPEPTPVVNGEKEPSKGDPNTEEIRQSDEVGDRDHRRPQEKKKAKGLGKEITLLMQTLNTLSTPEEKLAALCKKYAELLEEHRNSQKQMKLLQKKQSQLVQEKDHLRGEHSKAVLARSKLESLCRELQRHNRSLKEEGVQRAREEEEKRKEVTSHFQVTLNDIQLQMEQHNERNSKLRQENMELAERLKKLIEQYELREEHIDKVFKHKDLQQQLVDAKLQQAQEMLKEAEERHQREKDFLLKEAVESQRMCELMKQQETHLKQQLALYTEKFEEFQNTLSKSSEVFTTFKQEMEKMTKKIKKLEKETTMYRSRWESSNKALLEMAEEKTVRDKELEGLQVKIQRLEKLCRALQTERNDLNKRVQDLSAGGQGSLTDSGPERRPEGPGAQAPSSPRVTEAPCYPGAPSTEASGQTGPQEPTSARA
From the text: as §1, §2, §3

[7] = biological target: T7, Melanoma-associated antigen 3 (MAGE-A3) (human, UniProt P43357 1-314)
T7 construct: The array carries full-length recombinant human proteins expressed in S. cerevisiae; also called Human MAGE-A3
T7 sequence (P43357 whole entry): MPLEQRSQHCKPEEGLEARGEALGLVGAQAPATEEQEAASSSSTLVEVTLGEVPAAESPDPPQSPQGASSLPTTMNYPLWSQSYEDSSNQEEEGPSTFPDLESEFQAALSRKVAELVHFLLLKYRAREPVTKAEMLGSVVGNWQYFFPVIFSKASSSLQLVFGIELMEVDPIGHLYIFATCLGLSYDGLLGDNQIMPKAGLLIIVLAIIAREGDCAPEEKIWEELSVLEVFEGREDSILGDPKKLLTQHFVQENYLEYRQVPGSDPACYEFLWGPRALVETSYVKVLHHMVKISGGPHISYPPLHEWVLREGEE
From the text: as §1, §2, §3

Measured: binding result

B1: TMEL1008 (antibody, V domains shown)
VH: QVQLVQSGAEVKKPGSSVKVSCKASGGTFNRDGIIWVRQAPGQGLEWMGRIIPILGIANYAQKFQGRVTIIADKSTSTAYMELSSLRSEDTAVYYCARESEVGRGMDVWGQGTTVTVSS
VL: ASALTQPASVSGSPGQSITISCTGTSSDVGDYNYVSWYQQHPGKAPKLMIYDVSNRPSGVSHRFSGSKSGNTASLTISGLQAEDEADYYCSSYTISSTLGVFGPGTKVTVLG
notes: It was detected with an anti-human IgG Fc gamma secondary antibody
not listed: [7]
no binding (tested: 1 µg/ml): all other assays above

B2: TMEL1007 (antibody, V domains shown)
VH: HVHLVQSGAEVKKPGSSVKVSCTASGGSFSSNPISWVRQAPGHGLQWMGGFVPLFGTANYAPSFHGRLTITADESTSTTYMELNSLRSEDSAVYYCARDFNWNFDFWGQGTLVTVSS
VL: QSALTQPASVSGSPGQSITISCTGTSSDIGSYNLVSWYRQYPGKAPKLMIYEVNKRPSGVSNRFSGSKSGNTASLTISGLQAEDEADYYCCSYAGTTTFVIFGRGTKLTVLG
notes: as for B1
no binding (tested: 1 µg/ml): all assays above

B3: TMEL1014 (antibody, V domains shown)
VH: SVQLVESGGGVVQPGRSLRLSCAASGFTFSSYTMHWVRQAPGKGLEWVALISYDGSNKYYADSVKGRFTISRDNPKNTLYLQMNSLRVEDTAVYYCARDWTLGYWGQGTLVTVSS
VL: VSSELTQDPAVSVALGQTVRITCQGDSLRNYYANWYQQKPGQAPILVIYDKNNRPSGIPDRFSGSSSGNTASLTITGAQAEDEADYYCNSRDSSGYHLVFGGGTKLTVLG
notes: as for B1
not listed: [7]
no binding (tested: 1 µg/ml): all other assays above

B4: TMEL1011 (antibody, V domains shown)
VH: PVQLVQSGAEVKKPGSSVKVSCKASGGTFSSYSFNWVRQAPGQGLEWMARIIPILGLANYAQKFQGRVTLTADESTSTAYMELSSLRSEDTAIFYCAGMVLGQLGFDPWGQGTLVTVSS
VL: QFMLTQPHSVSESPGRTVTISCTRSSGSIARNYVHWYQHRPGSSPTTVIYEDDQRPSGVPDRFSGSIDSSSNSASLTISGLKPEDEADYFCQSYDSNIWVFGGGTKLTVLG
notes: as for B1
not listed: [6]
no binding (tested: 1 µg/ml): all other assays above

B5: TMEL1013 (antibody, V domains shown)
VH: PVQLVQSGAEVKKPGSSVKVSCKASGGTFSSYTINWVRQAPGQGLEWMGRIIPILGVANYAQKFQGRVTITADKSTSTAYMDLSSLRSEDTAVYYCAREWERAFDYWGQGTLVTVSS
VL: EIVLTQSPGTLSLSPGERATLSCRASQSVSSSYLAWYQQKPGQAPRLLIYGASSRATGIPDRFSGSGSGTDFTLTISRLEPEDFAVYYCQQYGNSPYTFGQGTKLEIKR
not listed: [7]
no binding (tested: 1 µg/ml): all other assays above

B6: TMEL1009 (antibody, V domains shown)
VH: PVQLVQSGAEVKKPGSSVKVSCRASGGTFSNYGLNWVRQAPGQGLEWMGGIIPIFGSVNYAQKFQDRVTITADESTSTTYMDLNSLRSEDTAVYYCATERGHNMERAFDFWGQGTLVTVSS
VL: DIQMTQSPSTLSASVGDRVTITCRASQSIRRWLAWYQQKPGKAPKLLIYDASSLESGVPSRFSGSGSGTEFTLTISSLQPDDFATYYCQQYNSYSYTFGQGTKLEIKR
not listed: [7]
no binding (tested: 1 µg/ml): all other assays above

B7: TMEL1010 (antibody, V domains shown)
VH: QVQLVQSGAEVKKPGASVKVSCKASGYTFSSYGISWVRQAPGQGLEWMGWISAYNGNTNYAKKLQGRVTMTTDTSTSTAYLELRSLRSDDTAVYYCARGDGPFDYWGQGTLVTVSS
VL: EIVMTQSPATLSVSPGERATLSCWASQSVSSSLAWYQQKPGQAPRLLMYGASNRATGIPARFSGSGSGTEFTLTISSLQSEDFAVYYCQQYNKWPPDTFGQGTKLEIKR
notes: as for B1
not listed: [5]
no binding (tested: 1 µg/ml): all other assays above
